± gives the standard error. This sample holds only a part of the variants without activity.
B1: glmS ribozyme (parent)
chain: AUAAAAGCGCCAGAACUACAGAAAUGUAGUUGACGAGGAGGAGGUUUAUCGAAUUUUCGGCGGAUGCCUCCAAA

Legend:
Conditions in all cases: with glucosamine-6-phosphate
glucosamine-6-phosphate [1] = variants of: B1; assay: self-cleavage kobs at 40 uM GlcN6P; higher = faster cleavage; RNA array
How it was run: (§1)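 E. coli RNA polymerase transcribed barcoded ribozyme variants in situ on sequenced MiSeq chips, which were tracked via a hybridised Cy3 probe at 37 °C. Tiles were imaged over ~14 h after glucosamine-6-phosphate (40 μM to 10 mM) in HEPES/KCl/Mg(OAc)2 buffer was flowed in. Normalised per-tile medians were fit to one- or two-exponential decays for kobs, and kcat and KM came from weighted Michaelis–Menten fits.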

glucosamine-6-phosphate [2] = variants of: B1; assay: self-cleavage kobs at 10000 uM GlcN6P; higher = faster cleavage; RNA array
How it was run: as §1

glucosamine-6-phosphate [3] = variants of: B1; assay: self-cleavage kobs at 160 uM GlcN6P; higher = faster cleavage; RNA array
How it was run: as §1

glucosamine-6-phosphate [4] = variants of: B1; assay: self-cleavage kobs at 640 uM GlcN6P; higher = faster cleavage; RNA array
How it was run: as §1

glucosamine-6-phosphate [5] = variants of: B1; assay: self-cleavage kobs at 2500 uM GlcN6P; higher = faster cleavage; RNA array
How it was run: as §1

Variant | self-cleavage kobs at 40 uM GlcN6P (glucosamine-6-phosphate [1]) [s⁻¹] | self-cleavage kobs at 10000 uM GlcN6P (glucosamine-6-phosphate [2]) [s⁻¹] | self-cleavage kobs at 160 uM GlcN6P (glucosamine-6-phosphate [3]) [s⁻¹] | self-cleavage kobs at 640 uM GlcN6P (glucosamine-6-phosphate [4]) [s⁻¹] | self-cleavage kobs at 2500 uM GlcN6P (glucosamine-6-phosphate [5]) [s⁻¹]
C11A C70U C71G | 4.85e-05 ± 1.9e-05 | 3.22e-05 ± 1.6e-05 | – | – | –
C11A C50G G62U | 0.000115 ± 2.8e-05 | 0.000116 ± 2.6e-05 | – | – | –
C10G G44A | < 1e-05 | < 1e-05 | < 1e-05 | < 1e-05 | –
C10G A52C U56A C71U | < 1e-05 | – | – | – | –
C11A G38U C67G C68U | 0.000296 ± 7.3e-05 | 0.000394 ± 9.3e-05 | – | – | –
C10U A52U U65A | < 1e-05 | < 1e-05 | – | < 1e-05 | < 1e-05
C11G U49A | < 1e-05 | – | < 1e-05 | < 1e-05 | < 1e-05
C11U G60U | < 1e-05 | < 1e-05 | – | < 1e-05 | < 1e-05
C11A A14C G63C U69C | < 1e-05 | – | – | – | –
C11U G41U A64U | < 1e-05 | < 1e-05 | < 1e-05 | – | < 1e-05
C11U G38U A52U | < 1e-05 | < 1e-05 | < 1e-05 | < 1e-05 | –
C10U G63U A64U | < 1e-05 | – | – | – | –
C10A U57C | < 1e-05 | – | < 1e-05 | – | –
C10G C50A | < 1e-05 | – | – | < 1e-05 | –
C11G C16A A48C | < 1e-05 | < 1e-05 | – | – | –
C11A G44A | < 1e-05 | < 1e-05 | – | < 1e-05 | < 1e-05
C11A G44C | < 1e-05 | – | < 1e-05 | < 1e-05 | < 1e-05
C11A G44U | < 1e-05 | – | < 1e-05 | < 1e-05 | < 1e-05
C10G G29A A48G | < 1e-05 | – | – | – | –
C11A U45C A48G | < 1e-05 | < 1e-05 | – | < 1e-05 | < 1e-05
C11G U46G C58G C67U | 0.000158 ± 4.6e-05 | 0.000304 ± 8.1e-05 | – | 0.000483 ± 0.00015 | –
C11U A42C C67G C71A | < 1e-05 | < 1e-05 | – | – | –
C11G A42U | < 1e-05 | < 1e-05 | < 1e-05 | < 1e-05 | < 1e-05

Variant | self-cleavage kobs at 40 uM GlcN6P (glucosamine-6-phosphate [1]) [s⁻¹] | self-cleavage kobs at 10000 uM GlcN6P (glucosamine-6-phosphate [2]) [s⁻¹] | self-cleavage kobs at 160 uM GlcN6P (glucosamine-6-phosphate [3]) [s⁻¹] | self-cleavage kobs at 640 uM GlcN6P (glucosamine-6-phosphate [4]) [s⁻¹] | self-cleavage kobs at 2500 uM GlcN6P (glucosamine-6-phosphate [5]) [s⁻¹]
C11G A42G | < 1e-05 | – | < 1e-05 | < 1e-05 | –
C11G U31A A33U A36C | < 1e-05 | < 1e-05 | – | – | < 1e-05
C11A A15G C58G C68A | 8.59e-05 ± 2.2e-05 | 0.000145 ± 2.6e-05 | – | – | –
C11G G32A | < 1e-05 | < 1e-05 | < 1e-05 | < 1e-05 | –
A12C C71A | 6.84e-05 ± 9.7e-06 | 0.00229 ± 0.00033 | – | 0.000423 ± 6.6e-05 | 0.00201 ± 0.0003
C11U A14C G38A C61G | < 1e-05 | – | – | – | –
C11U A14G G40U A42C | < 1e-05 | < 1e-05 | – | – | –
C10U G29C C61A | < 1e-05 | – | – | – | –
C11U A48G C68A | < 1e-05 | – | – | – | –
C10U G21U G59C | < 1e-05 | – | – | < 1e-05 | < 1e-05
C11G G37C | < 1e-05 | < 1e-05 | – | – | –
C11A A33U U54A | < 1e-05 | – | – | – | –
A12C A20U C67G | 9.99e-05 ± 2.5e-05 | 0.00115 ± 0.00024 | – | – | –
C11U U69G | 5.87e-05 ± 1.4e-05 | 5.87e-05 ± 8.8e-06 | 7.55e-05 ± 2.7e-05 | 0.000286 ± 6.5e-05 | 9.51e-05 ± 2.1e-05
C11G C58G | < 1e-05 | < 1e-05 | < 1e-05 | < 1e-05 | –
C11G U31A C50G U57G | 0.000129 ± 3.6e-05 | 5.06e-05 ± 1.6e-05 | – | – | 7.48e-05 ± 3e-05
C11A G38A G44C | < 1e-05 | < 1e-05 | – | – | –
C11A G41C | < 1e-05 | – | < 1e-05 | < 1e-05 | < 1e-05
C10A U30G C71U | < 1e-05 | < 1e-05 | – | – | –
C11G A39G U45C G60A G66U | < 1e-05 | – | – | – | –
C10U A48C | < 1e-05 | < 1e-05 | < 1e-05 | < 1e-05 | < 1e-05
C11U A15U U69G | 6.47e-05 ± 2.5e-05 | – | – | – | –
C10U A33U G35A | < 1e-05 | < 1e-05 | – | – | –
